Results on one molecule are retold here after paper PMC4793595.

The target in this experiment is T1, MS2 coat protein (bacteriophage MS2), P03612.
T1 chain: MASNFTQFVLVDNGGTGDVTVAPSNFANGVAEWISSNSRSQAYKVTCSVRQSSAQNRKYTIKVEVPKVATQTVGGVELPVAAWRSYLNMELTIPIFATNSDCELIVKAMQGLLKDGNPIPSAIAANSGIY
Description: native MS + AUC. Particulars: remark: other sources report otherwise.

B1: MS2 coat protein, P03612 1-130 (natural protein)
chain: MASNFTQFVLVDNGGTGDVTVAPSNFANGVAEWISSNSRSQAYKVTCSVRQSSAQNRKYTIKVEVPKVATQTVGGVELPVAAWRSYLNMELTIPIFATNSDCELIVKAMQGLLKDGNPIPSAIAANSGIY
Regarding B1, the stoichiometry N – broadly, a count of units in the complex or per binding partner – stood at 2.
